According to patent publication US20120184713:

What was measured:
[1] = system: T1, Peptide1, OPN-ASARM peptide (human Osteopontin 115Asp to 132Leu with N-terminal Arg-Lys-Arg)
T1 sequence: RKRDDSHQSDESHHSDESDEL

[2] = system: T2, Peptide3, OPN-ASARM derivative with the three G-CK consensus Ser residues changed to Ala
T2 sequence: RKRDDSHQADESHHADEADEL

[3] = system: T3, Peptide4, OPN-ASARM derivative with the other two Ser residues changed to Ala
T3 sequence: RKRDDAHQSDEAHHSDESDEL

Substance: Casein Kinase I (NEB)
- in vitro kinase assay with peptide substrate [1]: CKI also phosphorylated OPN-ASARM
- in vitro kinase assay with peptide substrate [2]: had reduced, but similar levels of activity on both OPN-ASARM^3S-A and OPN-ASARM^2S-A
- in vitro kinase assay with peptide substrate [3]: had reduced, but similar levels of activity on both OPN-ASARM^3S-A and OPN-ASARM^2S-A
